Test results: paper PMC9973331, “DNA Methylation and RNA-DNA Hybrids Regulate the Single-Molecule Localization of a DNA Methyltransferase on the Bacterial Nucleoid”

B1: unmethylated dsDNA (oTMN67/oTMN68) (dsDNA)
DNA 1: CAAAACAGGATATGAAATAGTATTGGACGAGAGCTTTTTGGTGGCTTATACTATAG
DNA 2: CTATAGTATAAGCCACCAAAAAGCTCTCGTCCAATACTATTTCATATCCTGTTTTG
B2: methylated dsDNA (oNLF001/oTMN68) (dsDNA)
DNA 1: B1 DNA 1
DNA 2: B1 DNA 2
modifications: m6A in strand 1 (oNLF001), exact position not visible in printed string; presumably in GACGAG
B3: RNA-DNA hybrid (oTMN67/oJRR271) (DNA:RNA)
DNA: B1 DNA 1
RNA: CUAUAGUAUAAGCCACCAAAAAGCUCUCGUCCAAUACUAUUUCAUAUCCUGUUUUG
modifications: strand 2 is RNA

Target: T1, DnmA (WT) (Bacillus subtilis, UniProt O31504 1-879)
T1 sequence: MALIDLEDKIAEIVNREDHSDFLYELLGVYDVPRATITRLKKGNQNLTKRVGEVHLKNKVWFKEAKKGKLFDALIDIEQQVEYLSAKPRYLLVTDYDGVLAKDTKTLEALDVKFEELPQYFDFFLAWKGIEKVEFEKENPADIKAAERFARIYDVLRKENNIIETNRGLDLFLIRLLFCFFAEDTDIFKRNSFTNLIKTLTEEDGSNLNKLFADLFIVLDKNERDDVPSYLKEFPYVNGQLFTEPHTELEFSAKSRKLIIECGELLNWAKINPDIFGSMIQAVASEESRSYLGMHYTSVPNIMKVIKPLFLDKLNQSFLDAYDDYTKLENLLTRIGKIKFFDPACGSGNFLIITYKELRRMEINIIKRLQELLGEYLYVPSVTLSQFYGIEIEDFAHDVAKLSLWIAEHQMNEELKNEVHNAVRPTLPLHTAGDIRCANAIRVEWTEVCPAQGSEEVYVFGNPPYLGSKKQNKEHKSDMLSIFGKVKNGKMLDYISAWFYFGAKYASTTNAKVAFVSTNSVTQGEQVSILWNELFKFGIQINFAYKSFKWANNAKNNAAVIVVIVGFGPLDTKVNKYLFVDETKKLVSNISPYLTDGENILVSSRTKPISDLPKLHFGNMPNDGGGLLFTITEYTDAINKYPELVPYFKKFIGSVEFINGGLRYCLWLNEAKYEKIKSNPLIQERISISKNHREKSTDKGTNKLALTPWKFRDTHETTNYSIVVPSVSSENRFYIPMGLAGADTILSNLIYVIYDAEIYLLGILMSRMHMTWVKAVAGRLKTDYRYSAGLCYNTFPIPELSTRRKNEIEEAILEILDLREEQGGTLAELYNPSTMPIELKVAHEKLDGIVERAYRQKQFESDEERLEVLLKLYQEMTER
Assay: EMSA; EMSA: 5x buffer 500 mM Tris-HCl pH 8, 1.25 M NaCl, 10% glycerol (1x: 100 mM Tris, 250 mM NaCl, 2% glycerol), 5 nM probe, 30 min at 25 C; 6% native PAGE in 1x TBE on ice
Conditions: protein: recombinant; tags: His-SUMO tag (pE-SUMO) removed by SUMO protease; label: 5' IRDye700 on strand 1; 5' IRDye800 on strand 2; blunt

In order of rising “apparent K (half saturation)” value:
1. B1  36.8 ± 14.2 nM
2. B2  156 ± 76 nM
3. B3  321 ± 16.5 nM
